The values below come from patent publication US20030148958A1 (PROCTER AND GAMBLE, published 2003).

Ends that are not written are not given here.

In experiment [1] the target is T1, corticotropin releasing factor 2 receptor.
T1 sequence (Q13324 whole entry, species assumed, looked up): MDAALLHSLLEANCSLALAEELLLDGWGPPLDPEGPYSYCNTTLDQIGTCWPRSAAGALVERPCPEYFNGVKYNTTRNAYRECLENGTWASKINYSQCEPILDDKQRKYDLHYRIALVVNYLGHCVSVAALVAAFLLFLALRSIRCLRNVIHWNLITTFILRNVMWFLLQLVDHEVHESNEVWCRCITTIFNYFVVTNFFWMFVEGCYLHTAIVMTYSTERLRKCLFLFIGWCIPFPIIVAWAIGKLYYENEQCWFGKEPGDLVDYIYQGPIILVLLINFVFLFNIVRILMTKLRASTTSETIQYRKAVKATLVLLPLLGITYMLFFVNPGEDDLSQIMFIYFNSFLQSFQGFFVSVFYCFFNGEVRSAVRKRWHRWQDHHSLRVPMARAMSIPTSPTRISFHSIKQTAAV
Nature of the experiment: cell-based or functional assay.

Experiment [2] addresses corticotropin releasing factor 1 receptor. Nature of the experiment: cell-based or functional assay.
Throughout, for CRF1R Emax: reference of the scale not given here.
Throughout, for CRF2R Emax: reference of the scale not given here.

For IVLSLDVPIGLLQELLEMARAEQLAQQAHSNRKLMEII-NH2 [SEQ ID NO 1], in experiment [1], the “CRF2R EC50” value is 31.5 nM and the “CRF2R Emax” value was 100%. In addition, in experiment [2], the “CRF1R EC50” value stood at 783 nM and the “CRF1R Emax” value came to 64%.

Take ZGPPISIDLPTPLLRKMIEIEKQEKEKQQAANNRLLLDTI (C-terminal amide) [SEQ ID NO 52]: in experiment [1], the “CRF2R EC50” value is greater than 100 nM and the “CRF2R Emax” value was 10%. For the same molecule, in experiment [2], the “CRF1R EC50” value was greater than 1000 nM and the “CRF1R Emax” value was 13%.

Take ZGPPISIDLPKYLLRKMIEIEKQEKEKQQAANNRLLLDTI (C-terminal amide) [SEQ ID NO 58]: in experiment [1], the “CRF2R EC50” value is 71.6 nM and the “CRF2R Emax” value came to 100%. In experiment [2], the “CRF1R EC50” value is greater than 100 nM and the “CRF1R Emax” value was 16%.

Take ZGPPISIDLPIGLLRKMIEIEKQEKEKQQAANNRLLLDTI (C-terminal amide) [SEQ ID NO 75]: in experiment [1], the “CRF2R EC50” value was greater than 100 nM and the “CRF2R Emax” value was found to be 52%. In experiment [2], the “CRF1R EC50” value is greater than 100 nM and the “CRF1R Emax” value was determined as 5%.

Take ZGPPISIDLPIELLRKMIEIEKQEKEKQQAANNRLLLDTI (C-terminal amide) [SEQ ID NO 76]: in experiment [1], the “CRF2R EC50” value was 91.5 nM and the “CRF2R Emax” value stood at 76%. Besides, in experiment [2], the “CRF1R EC50” value is greater than 100 nM and the “CRF1R Emax” value came out at 7%.

For ZGPPISIDLPRYLLRKMIEIEKQEKEKQQAANNRLLLDTI (C-terminal amide) [SEQ ID NO 65], in experiment [1], the “CRF2R EC50” value is 67.9 nM and the “CRF2R Emax” value was found to be 64%. Besides, in experiment [2], the “CRF1R EC50” value is greater than 100 nM and the “CRF1R Emax” value was found to be 16%.

Regarding ZGPPISIDLPNYLLRKMIEIEKQEKEKQQAANNRLLLDTI (C-terminal amide) [SEQ ID NO 64], in experiment [1], the “CRF2R EC50” value came to 63.3 nM and the “CRF2R Emax” value worked out at 94%. Also, in experiment [2], the “CRF1R EC50” value was 68.9 nM and the “CRF1R Emax” value is 57%.

As to ZGPPISIDLPFGLLRKMIEIEKQEKEKQQAANNRLLLDTI (C-terminal amide) [SEQ ID NO 68], in experiment [1], the “CRF2R EC50” value came out at 38.5 nM and the “CRF2R Emax” value is 74%. In experiment [2], the “CRF1R EC50” value was greater than 100 nM and the “CRF1R Emax” value worked out at 33%.

In the case of ZGPPISIDLPTYLLRKMIEIEKQEKEKQQAANNRLLLDTI (C-terminal amide) [SEQ ID NO 70], in experiment [1], the “CRF2R EC50” value amounted to 18.2 nM and the “CRF2R Emax” value was 82%. In experiment [2], the “CRF1R EC50” value was greater than 100 nM and the “CRF1R Emax” value was 8%.

ZGPPISIDLPLHLLRKMIEIEKQEKEKQQAANNRLLLDTI (C-terminal amide) [SEQ ID NO 83]: in experiment [1], the “CRF2R EC50” value is 1.91 nM and the “CRF2R Emax” value amounted to 81%. In addition, in experiment [2], the “CRF1R EC50” value came out at 52.2 nM and the “CRF1R Emax” value was 96%.

As for ZGPPISIDLPWYLLRKMIEIEKQEKEKQQAANNRLLLDTI (C-terminal amide) [SEQ ID NO 55], in experiment [1], the “CRF2R EC50” value came out at 7.95 nM and the “CRF2R Emax” value turned out to be 95%. In experiment [2], the “CRF1R EC50” value was 11.6 nM and the “CRF1R Emax” value came to 92%.

In the case of ZGPPISIDLPTQLLRKMIEIEKQEKEKQQAANNRLLLDTI (C-terminal amide) [SEQ ID NO 72], in experiment [1], the “CRF2R EC50” value was greater than 100 nM and the “CRF2R Emax” value came out at 55%. For the same molecule, in experiment [2], the “CRF1R EC50” value is greater than 100 nM and the “CRF1R Emax” value was 4%.

Consider ZGPPISIDLPFHLLRKMIEIEKQEKEKQQAANNRLLLDTI (C-terminal amide) [SEQ ID NO 69], for which, in experiment [1], the “CRF2R EC50” value was 5.85 nM and the “CRF2R Emax” value came to 81%. In experiment [2], the “CRF1R EC50” value turned out to be 34.5 nM and the “CRF1R Emax” value was found to be 88%.

As for ZGPPISIDLPLELLRKMIEIEKQEKEKQQAANNRLLLDTI (C-terminal amide) [SEQ ID NO 82], in experiment [1], the “CRF2R EC50” value was 10.9 nM and the “CRF2R Emax” value came to 90%. Moreover, in experiment [2], the “CRF1R EC50” value amounted to 96.2 nM and the “CRF1R Emax” value is 85%.

In the case of ZGPPISIDLPDYLLRKMIEIEKQEKEKQQAANNRLLLDTI (C-terminal amide) [SEQ ID NO 54], in experiment [1], the “CRF2R EC50” value is 100 nM and the “CRF2R Emax” value was determined as 11%. In experiment [2], the “CRF1R EC50” value worked out at 1000 nM and the “CRF1R Emax” value was 10%.

Turning to ZGPPISIDLPIYLLRKMIEIEKQEKEKQQAANNRLLLDTI (C-terminal amide) [SEQ ID NO 79], in experiment [1], the “CRF2R EC50” value was determined as 22.3 nM and the “CRF2R Emax” value was 100%. In experiment [2], the “CRF1R EC50” value is greater than 100 nM and the “CRF1R Emax” value amounted to 8%.

ZGPPISIDLPTRLLRKMIEIEKQEKEKQQAANNRLLLDTI (C-terminal amide) [SEQ ID NO 60]: in experiment [1], the “CRF2R EC50” value is greater than 100 nM and the “CRF2R Emax” value was 44%. In experiment [2], the “CRF1R EC50” value is greater than 100 nM and the “CRF1R Emax” value was 8%.

As to ZGPPISIDLPTALLRKMIEIEKQEKEKQQAANNRLLLDTI (C-terminal amide) [SEQ ID NO 61], in experiment [1], the “CRF2R EC50” value is greater than 100 nM and the “CRF2R Emax” value came to 89%. In experiment [2], the “CRF1R EC50” value is greater than 100 nM and the “CRF1R Emax” value came out at 12%.

As to ZGPPISIDLPSYLLRKMIEIEKQEKEKQQAANNRLLLDTI (C-terminal amide) [SEQ ID NO 56], in experiment [1], the “CRF2R EC50” value came out at 50.4 nM and the “CRF2R Emax” value came out at 87%. For the same molecule, in experiment [2], the “CRF1R EC50” value is greater than 100 nM and the “CRF1R Emax” value was determined as 14%.

ZGPPISIDLPTHLLRKMIEIEKQEKEKQQAANNRLLLDTI (C-terminal amide) [SEQ ID NO 74]: in experiment [1], the “CRF2R EC50” value was found to be 55 nM and the “CRF2R Emax” value was 100%. Besides, in experiment [2], the “CRF1R EC50” value was greater than 100 nM and the “CRF1R Emax” value turned out to be 7%.

Take ZGPPISIDLPTGLLRKMIEIEKQEKEKQQAANNRLLLDTI (C-terminal amide) [SEQ ID NO 73]: in experiment [1], the “CRF2R EC50” value is greater than 100 nM and the “CRF2R Emax” value is 11%. Besides, in experiment [2], the “CRF1R EC50” value was greater than 100 nM and the “CRF1R Emax” value is 11%.

For the molecule ZGPPISIDLPTNLLRKMIEIEKQEKEKQQAANNRLLLDTI (C-terminal amide) [SEQ ID NO 59], in experiment [1], the “CRF2R EC50” value is greater than 100 nM and the “CRF2R Emax” value came out at 27%. Moreover, in experiment [2], the “CRF1R EC50” value is greater than 100 nM and the “CRF1R Emax” value worked out at 10%.

For the molecule ZGPPISIDLPLQLLRKMIEIEKQEKEKQQAANNRLLLDTI (C-terminal amide) [SEQ ID NO 80], in experiment [1], the “CRF2R EC50” value was found to be 6.53 nM and the “CRF2R Emax” value came out at 88%. Besides, in experiment [2], the “CRF1R EC50” value is greater than 100 nM and the “CRF1R Emax” value turned out to be 55%.

Turning to ZGPPISIDLPGYLLRKMIEIEKQEKEKQQAANNRLLLDTI (C-terminal amide) [SEQ ID NO 63], in experiment [1], the “CRF2R EC50” value amounted to 67.3 nM and the “CRF2R Emax” value was 100%. In experiment [2], the “CRF1R EC50” value is 73.2 nM and the “CRF1R Emax” value turned out to be 34%.

For ZGPPISIDLPTELLRKMIEIEKQEKEKQQAANNRLLLDTI (C-terminal amide) [SEQ ID NO 71], in experiment [1], the “CRF2R EC50” value turned out to be 94.8 nM and the “CRF2R Emax” value is 56%. In addition, in experiment [2], the “CRF1R EC50” value is greater than 100 nM and the “CRF1R Emax” value was 6%.

As for ZGPPISIDLPFELLRKMIEIEKQEKEKQQAANNRLLLDTI (C-terminal amide) [SEQ ID NO 67], in experiment [1], the “CRF2R EC50” value was 10 nM and the “CRF2R Emax” value amounted to 50%. For the same molecule, in experiment [2], the “CRF1R EC50” value came to 44.2 nM and the “CRF1R Emax” value turned out to be 96%.

Regarding ZGPPISIDLPIHLLRKMIEIEKQEKEKQQAANNRLLLDTI (C-terminal amide) [SEQ ID NO 77], in experiment [1], the “CRF2R EC50” value turned out to be 43.4 nM and the “CRF2R Emax” value was found to be 100%. Also, in experiment [2], the “CRF1R EC50” value was greater than 100 nM and the “CRF1R Emax” value was 5%.

For ZGPPISIDLPPYLLRKMIEIEKQEKEKQQAANNRLLLDTI (C-terminal amide) [SEQ ID NO 57], in experiment [1], the “CRF2R EC50” value was greater than 100 nM and the “CRF2R Emax” value came to 46%. Besides, in experiment [2], the “CRF1R EC50” value was greater than 100 nM and the “CRF1R Emax” value was determined as 12%.

ZGPPISIDLPIQLLRKMIEIEKQEKEKQQAANNRLLLDTI (C-terminal amide) [SEQ ID NO 78]: in experiment [1], the “CRF2R EC50” value was 24.6 nM and the “CRF2R Emax” value was determined as 78%. Besides, in experiment [2], the “CRF1R EC50” value is greater than 100 nM and the “CRF1R Emax” value came to 6%.

As to ZGPPISIDLPLYLLRKMIEIEKQEKEKQQAANNRLLLDT (C-terminal amide) [SEQ ID NO 81], in experiment [1], the “CRF2R EC50” value was 4.3 nM and the “CRF2R Emax” value was determined as 73%. Besides, in experiment [2], the “CRF1R EC50” value is 60.9 nM and the “CRF1R Emax” value was 81%.
